Source: the supplement of paper PMC10567573
± gives the standard deviation.

Test: protein stability index of a GFP-peptide fusion (GPS, HEK-293T) (PSI 1-6); higher = more stable
[1] = treatment: DMSO, c terminus: a fixed tail appended
[2] = treatment: MLN4924 1 uM, 8 h, c terminus: a fixed tail appended
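Note: 24-mer peptide tiles fused after GFP, lentivirally expressed, FACS-sorted into six equal bins by GFP/DsRed ratio, decoded by Illumina sequencing, PSI is the read-weighted mean bin number.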

Row | Sequence | protein stability index [1] | protein stability index [2] | protein stability index (treatment: DMSO, c terminus: native) | protein stability index (treatment: MLN4924 1 uM, 8 h, c terminus: native)
1 | VLADLHSAEQLKAQAIDFINRCSV [SPOPL] | 2.15 ± 0.14 | 2.29 ± 0.39 |  | 
2 | TERDEIEDVKCQEDQKLQVLLTQI [TRIM15] | 4.34 ± 0.2 | 4.54 ± 0.12 |  | 
3 | AQRVKEVLPHVPLGVIQRDLAKTG [AUP1] | 3.81 ± 0.42 | 3.85 ± 0.17 |  | 
4 | RPQGPQLRQQQHKQNKQVLGYCLL [DNAJC4] | 2.52 ± 0.22 | 2.38 ± 0.23 |  | 
5 | SVVCRELGFGSAKEAVTGSRLGQG [LOXL2] | 3.69 ± 0.41 | 4.12 ± 0.44 |  | 
6 | QLEQVIESQKANQCAVLIYTSGTT [ACSBG2] | 2.52 ± 0.32 | 2.51 ± 0.25 |  | 
7 | SLIILHLSGATKKGTEKQTTSETQ [NETO1] | 2.35 ± 0.26 | 2.27 ± 0.56 |  | 
8 | STSDSDLTCDSSTSSSDDDEEVSG [C18orf25] | 5.22 ± 0.21 | 5.28 ± 0.13 |  | 
9 | DEEVSGSSKTITAEIPDGPPVVAH [C18orf25] | 5.35 ± 0.25 | 5.41 ± 0.22 |  | 
10 | FLANLHITALLNVSRRTSEACMTH [DUSP5] | 3.13 ± 0.42 | 3.48 ± 0.7 |  | 
11 | VKIESVKLDFKEKAQAKVGSLDNA [MAP2] | 3.5 ± 0.24 | 3.52 ± 0.24 |  | 
12 | KNKPKKMGHIKPDLIDVDLIRGST [PHTF1] | 3.8 ± 0.28 | 4.04 ± 0.2 |  | 
13 | LTPKGGVRTSYQPSSPGRFTKETT [TRIM29] | 4.17 ± 0.16 | 4.21 ± 0.11 |  | 
14 | PRELFPPLFMAAFDGRHSQTLKAM [PRAME] | 2.65 ± 0.41 | 2.69 ± 0.27 |  | 
15 | CYAAMKKKIYAMGGGSYGKLFESV [GAN] | 2.16 ± 0.39 | 2.23 ± 0.45 |  | 
16 | HEALSRLWELCHLWLRPEVHTKEQ [ZNF396] | 2.11 ± 0.45 | 2.4 ± 0.14 |  | 
17 | PISVHCSAGVGRTGVFITLSIVLE [PTPRD] | 2.96 ± 0.26 | 2.6 ± 0.21 |  | 
18 | SLGVPGSVGGVPGGTGSGDGNKIF [ZBTB22] | 4.38 ± 0.26 | 4.3 ± 0.22 |  | 
19 | SSTTILVQWKEPEEPNGQIQGYRV [PTPRD] | 2.91 ± 0.32 | 2.71 ± 0.46 |  | 
20 | CYKGHKEIAQYLLEKGADVNRKSV [FEM1C] | 3.1 ± 0.14 | 3.38 ± 0.18 |  | 
21 | IIRLVRVFRIFKLSRHSKGLQILG [KCNA4] | 2.25 ± 0.53 | 2.3 ± 0.4 |  | 
22 | DMKPITVGGKIVGSLCAIAGVLTI [KCNA4] | 2.88 ± 0.57 | 3.11 ± 0.32 |  | 
23 | LLGLGVLLFSGGLSESETGPMEEV [PBXIP1] | 2.22 ± 0.062 | 2.32 ± 0.31 |  | 

Row | Sequence | protein stability index [1] | protein stability index [2] | protein stability index (treatment: DMSO, c terminus: native) | protein stability index (treatment: MLN4924 1 uM, 8 h, c terminus: native)
24 | KYVVSGFDVDHGICIMDAENITTV [WDR88] | 2.28 ± 0.32 | 2.25 ± 0.25 |  | 
25 | IESERALISQCGKPVVNVSYRPAY [DUSP5] | 2.6 ± 0.5 | 2.82 ± 0.13 |  | 
26 | FVVTMLKLIQKKLLDKTCDQVMEF [ZER1] | 3.14 ± 0.39 | 3.15 ± 0.32 |  | 
27 | SSALHLSKGMSIFLDILRRADKND [NECAB1] | 2.29 ± 0.13 | 2.6 ± 0.31 |  | 
28 | EFLRVQEERILHQQVKCIITEEKV [VPS39] | 3.08 ± 0.26 | 2.92 ± 0.3 |  | 
29 | LDSIIDDRVILSSSTSCLMPSKLF [CRYL1] | 2.71 ± 0.38 | 2.77 ± 0.21 |  | 
30 | AIELQGHNDRVQALSYAQHTRQLI [WDFY2] | 3.1 ± 0.36 | 3.15 ± 0.41 |  | 
31 | HQEQVEDLTASHDAALLEMENNHT [MTUS2] | 5.51 ± 0.2 | 5.4 ± 0.3 |  | 
32 | SYRPAYDQGGPVEILPFLYLGSAY [DUSP5] | 2.08 ± 0.33 | 2.18 ± 0.32 |  | 
33 | ADLSQKSPELQEEFGYNAETQKLL [ARFIP2] | 4.95 ± 0.37 | 5.14 ± 0.17 |  | 
34 | FGRGSRTVDLELELQIELLRETKR [ARFIP2] | 2.26 ± 0.15 | 2.32 ± 0.26 |  | 
35 | FKKFIRRDFLLDEANGLLPDDKLT [SPOPL] | 2.27 ± 0.097 | 2.41 ± 0.24 |  | 
36 | PSLQPSRKLSPTEPKNYGSYSTQA [SCAMP3] | 4.4 ± 0.35 | 4.5 ± 0.22 |  | 
37 | DRDMFFKICESLNVPVDDSLVKEL [EFHC1] | 3.22 ± 0.29 | 3.3 ± 0.18 |  | 
38 | NQACKLLSDDYEQVRSAAVQLIWV [INTS4] | 2.62 ± 0.29 | 2.59 ± 0.36 |  | 
39 | TWLKGKFTELRLLLDEEEALAKKF [TRIM14] | 2.23 ± 0.42 | 2.34 ± 0.23 |  | 
40 | DVARQLGKNNEFSRLVAGEYLSFF [PSD2] | 2.26 ± 0.16 | 2.27 ± 0.44 |  | 
41 | AIAMYFLPPSPRFLVMKGQEGAAS [SLC2A12] | 2.17 ± 0.53 | 1.97 ± 0.31 |  | 
42 | DRYSEGIKHVLQTFGPIPEFSRAT [CRYL1] | 3.06 ± 0.58 | 3.36 ± 0.3 |  | 
43 | VIMQVPERIVVAGNNEDVSFSRPA [MFF] | 3.4 ± 0.3 | 3.47 ± 0.6 |  | 
44 | FGNRIKRVKLISNKGTETDNDPSC [PHTF1] | 4.06 ± 0.29 | 4.05 ± 0.42 |  | 
45 | GIGKNVICDRTATPLDAFRMTSAA [GFOD1] | 3.43 ± 0.25 | 3.45 ± 0.17 |  | 
46 | TTLLKCYLHTNVALVAPLLRLENN [VPS39] | 2.68 ± 0.54 | 2.77 ± 0.57 |  | 

Row | Sequence | protein stability index [1] | protein stability index [2] | protein stability index (treatment: DMSO, c terminus: native) | protein stability index (treatment: MLN4924 1 uM, 8 h, c terminus: native)
47 | HGSPQLGEGMFQHQTSVAHQPVVR [TBX5] | 4.19 ± 0.28 | 4.13 ± 0.17 |  | 
48 | IHTGKKPHVCSLCGKAFYKKYRLT [ZNF649] | 2.67 ± 0.42 | 2.92 ± 0.62 |  | 
49 | AILMKAYQRFRQKSKASFLLLASG [PTGFR] | 3.41 ± 0.86 | 2.83 ± 0.41 |  | 
50 | FIIHGFIDKGDESWVTDMCKVGAS [PNLIPRP1] | 1.98 ± 0.25 | 2.65 ± 0.48 |  | 
51 | RTERVEQAFRAIDRGDYYLEGYRD [PCMTD1] | 3.77 ± 0.17 | 3.82 ± 0.17 |  | 
52 | SPNTPQPVPEQSALCQGLYFHINQ [FAM104A] | 3 ± 0.15 | 3.16 ± 0.33 |  | 
53 | KTQIVCKHFLEAIENNKYGWFWVC [ZC3H15] | 2.62 ± 0.52 | 3.09 ± 0.54 |  | 
54 | NLVLSEDRKSVKFVETRLRDLPDT [TRIM39] | 4.31 ± 0.25 | 4.37 ± 0.2 |  | 
55 | RQAIFPDTWTLTEEHGLQQERPRP [PXN] | 4.43 ± 0.25 | 4.25 ± 0.28 |  | 
56 | EVKPVLEVLVGKTIEQSLLEVMEE [RSPH3] | 2.48 ± 0.39 | 2.64 ± 0.48 |  | 
57 | DSSSSCSDHCITSSDMMDSSSFSN [VDR] | 4.94 ± 0.28 | 5.01 ± 0.27 |  | 
58 | RDFLLDEANGLLPDDKLTLFCEVS [SPOPL] | 3.03 ± 0.2 | 3.08 ± 0.34 |  | 
59 | ALVCQVDNDHKEAVGKMGFVVTML [ZER1] | 2.29 ± 0.29 | 2.37 ± 0.5 |  | 
60 | HLTRGRKMAHVIAACLYLVCRTEG [BRF1] | 2.53 ± 0.99 | 2.6 ± 0.48 |  | 
61 | TLLNPRMIVDVTPYMNPSPFTVSP [CLCN6] | 2.32 ± 0.079 | 2.25 ± 0.081 |  | 
62 | ERALDATEVPFSITTDNLQCRERR [TEKT4] | 4.88 ± 0.069 | 5.06 ± 0.11 |  | 
63 | FLQALSLAVDKQFEERKKLAAYI [TRIP13] |  |  | 3.18 ± 0.71 | 2.54 ± 0.51
64 | DYELEDETRPAKRITITESNMKSR [WEE1] | 4.74 ± 0.35 | 5.16 ± 0.29 |  | 
65 | INPYSNRESRILFSTWNLDHIIEK [DFFB] | 2.54 ± 0.1 | 2.61 ± 0.099 |  | 
66 | PTYSDFCQFRPPVRVNDGGGSHPS [VDR] | 3.9 ± 0.25 | 4.03 ± 0.18 |  | 
67 | MSHAAEPARDGVEASAEGPRAVFV [TFE3] | 4.62 ± 0.13 | 4.86 ± 0.09 |  | 
68 | VEEQLAQLRCEMEQQNQEYKILLD [KRT17] | 4.75 ± 0.29 | 4.78 ± 0.22 |  | 
69 | DNRCKLFDSPSLCSSSTRSVLKRP [CDC25A] | 3.48 ± 0.2 | 3.64 ± 0.28 |  | 

Row | Sequence | protein stability index [1] | protein stability index [2] | protein stability index (treatment: DMSO, c terminus: native) | protein stability index (treatment: MLN4924 1 uM, 8 h, c terminus: native)
70 | HPVCSLCWSRDGHKLVSASTDNIV [RBBP5] | 2.72 ± 0.28 | 2.95 ± 0.44 |  | 
71 | QQYAAQQYPGNYEQQQILIRQLQE [ACBD3] | 4.07 ± 0.19 | 4.06 ± 0.22 |  | 
72 | VTKVTAVDADAGHNAWLSYSLLPQ [PCDHGC5] | 2.41 ± 0.39 | 2.29 ± 0.21 |  | 
73 | GGWNFSTQKFTDMVATANNRQTFV [CHIT1] | 2.55 ± 0.29 | 2.81 ± 0.31 |  | 
74 | RVVHWYFKLLDKNSSGDIGKKEIK [SMOC2] | 2.46 ± 0.97 | 2.41 ± 0.4 |  | 
75 | DVPDLQSVCSCTCYRSQDYGGRSV [KCNK9] | 2.5 ± 0.36 | 2.81 ± 0.67 |  | 
76 | QAIQMRLVDVACKHLTDTSHGVRN [INTS4] | 2.52 ± 0.4 | 2.52 ± 0.23 |  | 
77 | IVGYAFHFPHLLSPQIQRSAHRAL [TMEM175] | 2.23 ± 0.24 | 2.54 ± 0.51 |  | 
78 | CRGIPRGPVRPAIPPPLSSVYAWG [NEK8] | 2.3 ± 0.36 | 2.35 ± 0.43 |  | 
79 | MEGLEENGGVVQVGELLPCKICGR [ZC2HC1A] | 4.13 ± 0.21 | 4.26 ± 0.48 |  | 
80 | LIDYKSYMDTKLLVARFLEQSSCT [FAM189A2] | 2.38 ± 0.091 | 2.25 ± 0.19 |  | 
81 | QSRANGVKYPELVLEHSLDREEEA [PCDHGA10] | 5.29 ± 0.12 | 5.31 ± 0.15 |  | 
82 | DGLLGDNQIMPKTGFLIIILAIIA [MAGEA6] | 2.86 ± 0.65 | 2.12 ± 0.46 |  | 
83 | SLALGDLIYVVIDLPINVFKLLAG [EDNRA] | 2.59 ± 1 | 3.28 ± 0.54 |  | 
84 | NITRLQLETEIEALKEELLFMKKN [KRT18] | 2.82 ± 0.091 | 3.05 ± 0.51 |  | 
85 | DQVSACIPVFRLARRRKKILFYCH [ALG2] | 2.22 ± 0.47 | 2.24 ± 0.075 |  | 
86 | GRGLYVYSLQMKRVIACQKTAHDS [WDR41] | 2.08 ± 0.42 | 2.15 ± 0.34 |  | 
87 | DTVTEVTARMEMLIEELYAFMPAR [CBY2] | 2.38 ± 0.25 | 2.47 ± 0.48 |  | 
88 | TVLLVLEDEDPEEMPKSSDFLIHP [PCDHGC5] | 2.75 ± 0.15 | 2.91 ± 0.21 |  | 
89 | LKNHFQSVLEQLELQEKQKNEKLI [TAF7L] | 2.82 ± 0.12 | 2.95 ± 0.22 |  | 
